Among the data in patent US20160130351A1 (NOVIMMUNE S A, published 2016) are Kd, koff and kon values, retold here.

The labels stand for the following.
T1: soluble cynomolgus monkey IL-6R (cynomolgus monkey, UniProt A0A2K5WN54 60-396)
T1 construct: extracellular domain; also called scyIL-6R; soluble cynomolgus monkey IL-6 Receptor; not shown: C-terminal His- or Avi-Tag
T1 sequence: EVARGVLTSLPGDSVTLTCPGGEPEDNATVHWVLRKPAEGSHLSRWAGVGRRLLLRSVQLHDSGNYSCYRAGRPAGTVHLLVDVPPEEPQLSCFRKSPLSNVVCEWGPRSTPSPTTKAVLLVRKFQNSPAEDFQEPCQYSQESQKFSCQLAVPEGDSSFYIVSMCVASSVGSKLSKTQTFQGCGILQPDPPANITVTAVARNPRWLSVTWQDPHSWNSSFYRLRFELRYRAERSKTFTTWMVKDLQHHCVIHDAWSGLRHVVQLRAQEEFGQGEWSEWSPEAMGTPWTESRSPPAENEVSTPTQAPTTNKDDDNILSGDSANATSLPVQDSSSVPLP

T2: carrier-free soluble human IL-6R (R&D) (human, UniProt P08887 20-365)
T2 construct: extracellular domain; also called shuIL-6R; shuIL6-R
T2 sequence (looked up): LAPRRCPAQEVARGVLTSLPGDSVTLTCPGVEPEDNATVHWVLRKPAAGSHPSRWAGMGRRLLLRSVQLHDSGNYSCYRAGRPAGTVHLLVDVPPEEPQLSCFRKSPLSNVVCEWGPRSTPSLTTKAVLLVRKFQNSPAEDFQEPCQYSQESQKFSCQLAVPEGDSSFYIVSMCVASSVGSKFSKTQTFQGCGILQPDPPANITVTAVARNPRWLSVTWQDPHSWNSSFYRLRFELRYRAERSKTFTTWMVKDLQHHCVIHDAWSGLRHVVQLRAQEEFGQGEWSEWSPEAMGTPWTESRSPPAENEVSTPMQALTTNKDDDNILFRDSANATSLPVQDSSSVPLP

B1: NI-1201-A antibody (antibody, V domains shown)
VH: QVQLVQSGAEVKKPGSSVKVSCKASGGTFSSYAISWVRQAPGQGLEWMGGIIPLFDTTKYAQKFQGRVTITADESTSTAYMELSSLRSEDTAVYYCARDRDILTDYYPMGGMDVWGQGTTVTVSS
VL: AIQLTQSPSSLSASVGDRVTITCRASQGISSVLAWYQQKPGKAPKLLIYDASSLESGVPSRFSGSGSGTDFTLTISSLQPEDFATYYCQQSNSYPLTFGGGTKVEIKR
B2: NI-1201-D antibody (antibody, V domains shown)
VH: B1 VH with L54A, D56E, M109L
VL: B1 VL with N92Q
B3: NI-1201-B antibody (antibody, V domains shown)
VH: B1 VH with M109L
VL: B1 VL
B4: NI-1201-C antibody (antibody, V domains shown)
VH: B1 VH with L54A, D56E, M109L
VL: B1 VL

Positions count from the first letter of the chain named.

For orientation: Kd means a measure of binding affinity in units of concentration. As usually defined, the koff is the rate constant with which the complex falls apart. One may read the kon as the rate constant with which the complex forms.

The first assay has as its target T1, soluble cynomolgus monkey IL-6R. The assay is described as follows: SPR (Biacore 2000), mAb captured on anti-human IgG Fc, analyte in solution, 25 C, 1:1 Langmuir. Here is the method: (§1) A CM5 Biacore chip was used and 1640 RU (response units) of an anti-human IgG Fc (Biacore AB, Uppsala, Sweden) was immobilized by EDC/NHS chemistry. […] The surface was regenerated after each cycle by injection of 3M magnesium chloride at 20 μL/min, for 30 s followed by lmin of stabilization time in HBS-EP buffer (Biacore AB, Uppsala, Sweden). Binding was measured by passing analytes carrier-free soluble human IL-6R (shuIL6-R; R&D), soluble human IL-6Rc (shuIL-6Rc) and soluble cynomolgus monkey IL-6R (scyIL-6R) in duplicates at the following concentrations: 100 nM, 50 nM, 25 nM, 12.5 nM, 6.25 nM and 0nM. All solutions were diluted in HBS-EP buffer. Injection was performed at 50 μl/min for 3 min followed by 12 min of dissociation time and the temperature was set at 25° C.
For orientation: SPR reads the build-up and loss of mass on a sensor chip optically.
B1 had an equilibrium dissociation constant (Kd) of 2.05 nM, a koff of 0.000213 s⁻¹ and an association rate constant (kon) of 104000 M⁻¹ s⁻¹.

For the molecule B2, the Kd is 1.79 nM, the koff was 0.0002 s⁻¹ and the kon was 112000 M⁻¹ s⁻¹.

In the case of B3, the Kd turned out to be 1.81 nM, the koff is 0.000207 s⁻¹ and the kon worked out at 115000 M⁻¹ s⁻¹.

Take B4: binding was characterised by a dissociation constant (Kd) of 2.03 nM, the dissociation rate constant (koff) is 0.000225 s⁻¹ and the kon is 111000 M⁻¹ s⁻¹.

A further assay deals with T2, carrier-free soluble human IL-6R (R&D). The description is as above. As for the experimental part:
as §1
The molecule B1 returned a Kd of 0.121 nM, a koff of 0.00011 s⁻¹ and a kon of 829000 M⁻¹ s⁻¹.

B2 had an equilibrium dissociation constant (Kd) of 0.134 nM, a koff of 0.000102 s⁻¹ and a kon of 761000 M⁻¹ s⁻¹.

The molecule B3 showed a Kd of 0.107 nM, a koff of 9.4e-05 s⁻¹ and an on-rate (kon) of 875000 M⁻¹ s⁻¹.

The molecule B4 gave an equilibrium dissociation constant (Kd) of 0.11 nM, a koff of 0.00011 s⁻¹ and a kon of 992000 M⁻¹ s⁻¹.

Another assay has as its target soluble human IL-6Rc (shuIL-6Rc) recombinant fusion protein of IL-6R and IL-6 (human) (UniProt P08887). The description is as above.
Turning to B1, the dissociation constant (Kd) was 4.92 nM, the dissociation rate constant (koff) was 0.000246 s⁻¹ and the kon is 50100 M⁻¹ s⁻¹.

Consider B2, for which the dissociation constant Kd was 4.89 nM, the koff is 0.000222 s⁻¹ and the on-rate constant (kon) turned out to be 45300 M⁻¹ s⁻¹.

Turning to B3, the Kd worked out at 4.43 nM, the off-rate (koff) turned out to be 0.000237 s⁻¹ and the kon was 53400 M⁻¹ s⁻¹.

Consider B4, for which the Kd stood at 5.03 nM, the koff is 0.00024 s⁻¹ and the on-rate constant (kon) is 47700 M⁻¹ s⁻¹.
